From patent publication US20240199755A1 (KYMAB, published 2024)

Experiments:
[1] = molecular target: BMP-4; test: SPR steady state analysis, BMP-4 immobilised, Tfr2-ECD 10-5000 nM as analyte, 1:1 interaction assumed
Protocol: (§1) The binding analysis was performed at 37° C. at a flow rate of 30 μl/min. Each analyte was diluted in running buffer (HBS-P (pH 7.4), 150 mM NaCl, supplemented with 50 nM FeCl₃). In some experiments, 500 mM NaCl were used to reduce potential non-specific binding. […] Concentration-dependent binding of holo-Tf was performed without intermediate regeneration.
(§2) The kinetic fitting was performed by global fitting using the 1:1 Langmuir binding model (A+B=AB). Steady state analyses were conducted to determine the affinities (Kd). […] Binding and kinetic parameters were evaluated with Biacore™ T200 evaluation software 3.1.

[2] = molecular target: T1, BMP-2; test: SPR binding level normalised to molecular weight, Tfr2-ECD immobilised; reference holo-Tf
T1 construct: The BMP-2 used in the heterotopic ossification model was from Thermo Fisher, and in the co-IP from Peprotech; Species is never stated, so all are treated as one molecule; also called bone morphogenetic protein 2
T1 sequence (P12643 283-396, species assumed, looked up): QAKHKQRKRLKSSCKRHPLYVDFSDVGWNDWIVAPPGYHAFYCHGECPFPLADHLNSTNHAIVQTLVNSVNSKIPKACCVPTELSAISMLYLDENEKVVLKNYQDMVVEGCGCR
Protocol: All experiments were performed three independent times. FIG. 15a: Quantification of the binding level normalized to the molecular weight. […] FIG. 15b: Binding response of different concentrations of holo-Tf and/or BMP-2. […] (n=4). FIG. 15d: SPR analyses. […] Binding response is relative to BMP-2 alone. […] FIGS. 15b and 15d: One-way ANOVA was used for statistical analysis. […] Two-way ANOVA with Bonferroni post-hoc test was used for statistical analysis. […] All data are presented as mean±SD.

[3] = molecular target: T1, BMP-2; test: SPR steady state analysis, BMP-2 immobilised, Tfr2-ECD 10-5000 nM as analyte, 1:1 interaction assumed
Protocol: as §1, §2

BMP-4, sequence (P12644 293-408): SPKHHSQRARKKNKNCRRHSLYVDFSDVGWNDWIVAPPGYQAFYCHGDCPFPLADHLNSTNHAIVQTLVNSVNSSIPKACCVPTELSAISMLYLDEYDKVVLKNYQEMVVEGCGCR

Kd [1]: 409 nM
fold binding relative to holo-Tf [2]: 10 fold
Kd [3]: 488 nM
B1: Tfr2 extracellular domain (Tfr2-ECD), murine, aa 103-798, recombinant His-tagged (receptor, not shown: large carriers)
chain: RGSCQACGDSVLVVDEDVNPEDSGRTTLYWSDLQAMFLRFLGEGRMEDTIRLTSLRERVAGSARMATLVQDILDKLSRQKLDHVWTDTHYVGLQFPDPAHANTLHWVDADGSVQEQLPLEDPEVYCPYSATGNATGKLVYAHYGRSEDLQDLKAKGVELAGSLLLVRVGITSFAQKVAVAQDFGAQGVLIYPDPSDFSQDPHKPGLSSHQAVYGHVHLGTGDPYTPGFPSFNQTQFPPVESSGLPSIPAQPISADIADQLLRKLTGPVAPQEWKGHLSGSPYRLGPGPDLRLVVNNHRVSTPISNIFACIEGFAEPDHYVVIGAQRDAWGPGAAKSAVGTAILLELVRTFSSMVSNGFRPRRSLLFISWDGGDFGSVGATEWLEGYLSVLHLKAVVYVSLDNSVLGDGKFHAKTSPLLVSLIENILKQVDSPNHSGQTLYEQVALTHPSWDAEVIQPLPMDSSAYSFTAFAGVPAVEFSFMEDDRVYPFLHTKEDTYENLHKMLRGRLPAVVQAVAQLAGQLLIRLSHDHLLPLDFGRYGDVVLRHIGNLNEFSGDLKERGLTLQWVYSARGDYIRAAEKLRKEIYSSERNDERLMRMYNVRIMRVEFYFLSQYVSPADSPFRHIFLGQGDHTLGALVDHLRMLRADGSGAASSRLTAGLGFQESRFRRQLALLTWTLQGAANALSGDVWNIDNNF
notes: Expressed in Sf9 insect cells (pOCC211-Tfr2-ECD) and purified on HisTrap; Experiments were repeated with a commercial Tfr2-ECD from Cusabio (aa 103-798); also called His-Tfr2-ECD; His-MBP-c3-Tfr2-ECD
